Measured values as given in PMC11236177.

Columns and labels:
[1] = biological target: recombinant PfPKG quintuple mutant STmut (Plasmodium falciparum) (UniProt Q8I719)
[2] = biological target: recombinant wild-type PfPKG (Plasmodium falciparum) (UniProt Q8I719)

Substance: PKAtide (peptide)
- PKAtide concentration at half maximal velocity (Km), ParM-ADP real-time fluorescence kinase assay [1]: 13 µM
- PKAtide concentration at half maximal velocity (Km), ParM-ADP real-time fluorescence kinase assay [2]: 10 µM
